In patent US20230109780A1 (XIYUAN ANJIAN MEDICINE SHANGHAI, published 2023):

T1: human NT-4 (human, UniProt P34130 81-210)
T1 construct: Bought protein; also called Neurotrophic factor-4
T1 sequence (looked up): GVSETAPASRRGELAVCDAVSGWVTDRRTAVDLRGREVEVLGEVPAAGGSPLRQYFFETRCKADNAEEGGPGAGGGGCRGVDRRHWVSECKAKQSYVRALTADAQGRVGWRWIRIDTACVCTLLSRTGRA

T2: human NT-3 (human, UniProt P20783 139-257)
T2 construct: Bought protein; also called Neurotrophic factor-3
T2 sequence (looked up): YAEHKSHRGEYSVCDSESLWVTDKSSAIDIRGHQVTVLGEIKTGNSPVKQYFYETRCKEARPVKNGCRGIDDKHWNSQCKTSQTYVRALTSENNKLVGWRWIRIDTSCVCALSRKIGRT

T3: human BDNF (human, UniProt P23560 129-247)
T3 construct: Bought protein; also called Brain-Derived Neurotrophic Factor
T3 sequence (looked up): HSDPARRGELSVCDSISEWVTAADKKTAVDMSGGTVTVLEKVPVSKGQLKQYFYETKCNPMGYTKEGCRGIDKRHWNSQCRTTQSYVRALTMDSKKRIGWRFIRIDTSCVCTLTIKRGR


Key:
[1] = biological target: T4, recombinant human NGF protein (human, UniProt P01138 122-241); test: ELISA, human NGF coated
T4 construct: Bought protein; also called nerve growth factor; biotin-labeled human NGF
T4 sequence (P01138 122-241 limits assumed): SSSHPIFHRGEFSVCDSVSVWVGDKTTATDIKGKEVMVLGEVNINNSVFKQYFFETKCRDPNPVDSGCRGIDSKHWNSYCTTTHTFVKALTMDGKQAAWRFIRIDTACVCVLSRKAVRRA
Method: The affinity and specificity of humanized antibody were investigated by using human NGF as an antigen (Beijing Yiqiao Shenzhou Technology Co., Ltd., 11050-HNAC). NGF was diluted with […] coating solution (PBS), and each well of 96-well microtiter plate was coated with 50 ng, after washing and blocking, and then added with serially diluted antibodies, and incubated at room temperature for 1 hour. After washing three times, HRP-conjugated donkey anti-human IgG antibody (Biolegend) was added and reacted at room temperature for 1 hour. After washing three times, tetramethylbenzidine (TMB, Biolegend) was added for color development. 1M HC1 was […] used to terminate the color development, and the absorbance values were read at 450 nm with a microplate reader.

[2] = biological target: T4, recombinant human NGF protein; test: cell-based or functional assay
[3] = biological target: T1, human NT-4; test: ELISA, plate coated with human NT-4 (50 ng per well), OD450
[4] = biological target: T2, human NT-3; test: ELISA, plate coated with human NT-3 (50 ng per well), OD450
Method: Each well of a 96-well microtiter plate was coated with 50 ng of human NGF (Beijing Yiqiao Shenzhou Technology Co., Ltd., 11050-HNAC), human BDNF (Beijing Yiqiao Shenzhou Technology Co., Ltd., 50240-MNAS), human NT-3 (Beijing Yiqiao Shenzhou Technology Co., Ltd., 10286-HNAE), or human NT-4 (Alomone, N-270). The bindings of the murine anti-NGF antibodies to human NGF and three homo-family proteins were detected according to the method described in Example 2.
The binding of the humanized anti-NGF antibody to human NGF and to three homo-family proteins was detected according to the ELISA method described in Example 6A.

[5] = biological target: T3, human BDNF; test: ELISA, plate coated with human BDNF (50 ng per well), OD450

Binder | EC50 [1] [pM] | IC50, inhibition of NGF-induced proliferation of TF-1 cell [2] [pM] | binding result [3] | binding result [4] | binding result [5]
humanized anti-NGF antibody 138E12-02 (antibody, V domains shown, Humanized antibody expressed in CHO cells) VH: QVQLQESGPGLVKPSETLSLTCTVSGFSLTGYGVNWIRQPPGKGLEWLGMIWFDGSTDYNSALKSRLTISKDNSKSQVSLKLSSVTAADTAVYYCAREGYYYGTTYYFDYWGQGTTVTVSS VL: DIQMTQSPSSLSASVGDRVTITCRASQDISNYLNWYQQKPGKAPKLLIYYTSRLHSGVPSRFSGSGSGTDYTLTISSLQPEDFATYFCQQGNTLPRTFGGGTKVEIK | 42 | 64 | no binding (tested: 66.67 nM) | no binding (tested: 66.67 nM) | no binding (tested: 66.67 nM)
humanized anti-NGF antibody 138E12-03 (antibody, V domains shown) VH: QVQLQESGPGLVKPSETLSLTCTVSGFSLTGYGVNWIRQPPGKGLEWLGMIWFEGSTDYNSALKSRLTISKDNSKSQVSLKLSSVTAADTAVYYCAREGYYYGTTYYFDYWGQGTTVTVSS VL: DIQMTQSPSSLSASVGDRVTITCRASQDISNYLNWYQQKPGKAPKLLIYYTSRLHSGVPSRFSGSGSGTDYTLTISSLQPEDFATYFCQQGNTLPRTFGGGTKVEIK | 39.2 | 130 | no binding (tested: 66.67 nM) | no binding (tested: 66.67 nM) | no binding (tested: 66.67 nM)
humanized anti-NGF antibody 138E12-06 (antibody, V domains shown) VH: QVQLQESGPGLVKPSETLSLTCTVSGFSLTGYGVNWIRQPPGKGLEWLGMIWFDGSTDYNTALKSRLTISKDNSKSQVSLKLSSVTAADTAVYYCAREGYYYGTTYYFDYWGQGTTVTVSS VL: DIQMTQSPSSLSASVGDRVTITCRASQDISNYLNWYQQKPGKAPKLLIYYTSRLHSGVPSRFSGSGSGTDYTLTISSLQPEDFATYFCQQGNTLPRTFGGGTKVEIK | 50 | 125 | no binding (tested: 66.67 nM) | no binding (tested: 66.67 nM) | no binding (tested: 66.67 nM)
humanized anti-NGF antibody 138E12-05 (antibody, V domains shown) VH: QVQLQESGPGLVKPSETLSLTCTVSGFSLTGYGVNWIRQPPGKGLEWLGMIWFDGSTDYQSALKSRLTISKDNSKSQVSLKLSSVTAADTAVYYCAREGYYYGTTYYFDYWGQGTTVTVSS VL: DIQMTQSPSSLSASVGDRVTITCRASQDISNYLNWYQQKPGKAPKLLIYYTSRLHSGVPSRFSGSGSGTDYTLTISSLQPEDFATYFCQQGNTLPRTFGGGTKVEIK | 63.4 | 136 | no binding (tested: 66.67 nM) | no binding (tested: 66.67 nM) | no binding (tested: 66.67 nM)
humanized anti-NGF antibody 138E12-01 (antibody, V domains shown, Humanized antibody expressed in CHO cells) VH: QVQLQESGPGLVKPSETLSLTCTVSGFSLTGYGVNWIRQPPGKGLEWIGMIWFDGSTDYNSALKSRVTISKDNSKSQVSLKLSSVTAADTAVYYCAREGYYYGTTYYFDYWGQGTTVTVSS VL: DIQMTQSPSSLSASVGDRVTITCRASQDISNYLNWYQQKPGKAPKLLIYYTSRLHSGVPSRFSGSGSGTDYTLTISSLQPEDFATYFCQQGNTLPRTFGGGTKVEIK | 40.3 | 30 | no binding (tested: 66.67 nM) | no binding (tested: 66.67 nM) | no binding (tested: 66.67 nM)
humanized anti-NGF antibody 138E12-04 (antibody, V domains shown) VH: QVQLQESGPGLVKPSETLSLTCTVSGFSLTGYGVNWIRQPPGKGLEWLGMIWFDASTDYNSALKSRLTISKDNSKSQVSLKLSSVTAADTAVYYCAREGYYYGTTYYFDYWGQGTTVTVSS VL: DIQMTQSPSSLSASVGDRVTITCRASQDISNYLNWYQQKPGKAPKLLIYYTSRLHSGVPSRFSGSGSGTDYTLTISSLQPEDFATYFCQQGNTLPRTFGGGTKVEIK | 57 | 112 | no binding (tested: 66.67 nM) | no binding (tested: 66.67 nM) | no binding (tested: 66.67 nM)
